{"source": "patent US20240376180A1", "biological_target": "SARS-CoV spike on S-pseudotyped MLV virions (SARS-CoV)", "assay": "cell-based or functional assay", "data": [{"substance": "COVA1-16 (antibody)", "values": [{"measurement": "percent neutralization of pseudovirus at 200 µg, antibody alone", "value": 28, "unit": "%"}]}]}
